Measurements reported in patent US20080182978A1, “ANTI-NGF ANTIBODIES AND METHODS USING SAME” (RINAT NEUROSCIENCE CORP, priority 2002, published 2008).
Entries after “also recorded” stand apart in the source; their conditions may differ.

Columns and labels:
NT4/5 = biological target: T1, NT4/5 (Homo sapiens, UniProt P34130); assay: Mouse E17 nodose neuron survival assay, NT4/5; type: cell-based; details: NT4/5 400 pM; antibody up to 200 nM; 48 hours
T1 sequence (P34130 81-210): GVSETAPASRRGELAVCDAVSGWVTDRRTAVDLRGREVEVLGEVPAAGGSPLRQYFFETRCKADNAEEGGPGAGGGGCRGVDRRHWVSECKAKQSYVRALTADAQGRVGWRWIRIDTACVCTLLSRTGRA
Description: The ability of antibody E3 to specifically block NGF activity was also evaluated by measurement of the capacity of the antibody to inhibit survival of mouse nodose E17 neurons in the presence of saturating concentrations of BDNF or NT4/5. Survival of nodose neurons is supported by BDNF or NT4/5; therefore, survival of these neurons is a sensitive assay to evaluate the BDNF or NT4/5-blocking ability of the anti-NGF antagonist antibody.
The survival assay was conducted as follows: time mated pregnant Swiss Webster female mice were euthanised by CO2 inhalation. The uterine horns were removed and the embryos (at embryonic day 17 or 18) were extracted and decapitated. The trigeminal and nodose ganglia were dissected and cleaned. The ganglia were then trypsinised, mechanically dissociated and plated at a density of 100-300 cells per well in defined, serum-free medium in 4-well plates (Greiner) coated with poly-L-ornithine and laminin.
E17 nodose neurons were grown either in the absence of added neurotrophic factors (negative control), or with saturating concentrations of BDNF (400 pM) (positive control) or NT4/5 (400 pM) or NGF unrelated growth factor […]. High concentrations of neurotrophins were used, as the goal of this experiment was to test specificity of the antibodies. […]

[1] = test system: moderate to severe pain from osteoarthritis of the knee; assay: Clinical study, osteoarthritis of the knee: index knee pain VAS, PID/SPID; type: in vivo, human
Description: Adult males and females (ages between 35 to 65) who were experiencing moderate-to-severe pain from osteoarthritis of the knee, but were in otherwise overall good health were enrolled in the study. During the screening period, patients were required to discontinue arthritis medications such as NSAIDs, cyclooxygenase type-2 (COX-2) inhibitors, and opiates at least 14 days prior to administration of anti-NGF antibody E3. Patients were allowed to use rescue medications of acetaminophen or ibuprofen with some restrictions based on laboratory findings or past medical history. Some patients took rescue medications during the study, but rescue medications were not consumed for 2 days before and after administration of anti-NGF antibody E3. Thirty-four patients were admitted to the study and assessed as inpatients for on Study Days -1, 1 and 2. Anti-NGF antibody E3 administration occurred on the morning of Day 1. Electronic diaries were used to record index knee pain and rescue medication usage in clinic and at home. Ten patients were treated with placebo. Twenty-four patients were treated with anti-NGF antibody E3: four patients per dose level for 3 μg/kg (cohort 1), 10 μg/kg (cohort 2), and 30 μg/kg (cohort 3); and six patients per dose level for 100 μg/kg (cohort 4) and 300 μg/kg (cohort 5). The placebo used was sterile 0.9% Sodium Chloride Injection, USP (normal saline). Anti-NGF antibody E3 was a frozen liquid formulation consisting of 10 mg/ml antibody in an aqueous solution of 10 mM histidine, 275 mM sucrose, 0.01% polysorbate 20, pH 6.0. One hour prior to IV administration, frozen antibody was thawed and diluted into Sodium Chloride Injection, USP. The volume for each patient was calculated based on the subject's Day -1 weight and assigned dose level, ranging from 3-6 cc for cohort 1, 10-20 cc for cohort 2, 30-60 cc for cohort 3, and 100 cc for cohort 4 and cohort 5. For cohorts 1 and 2, antibody E3 was administered by a slow IV bolus over 3 to 5 minutes, followed with an IV flush of 5 cc Sodium Chloride Injection, USP. For cohorts 3-5, antibody E3 was administered at 100 cc/hour via infusion pump, followed with an IV flush of 5 cc Sodium Chloride Injection, USP and discontinuation of the IV. Within each cohort, the placebo (Sodium Chloride Injection, USP) was administered by slow bolus or continuous infusion in the same fashion as the antibody E3. After two in-patient days, patients were discharged home. […] Periodic safety assessments was performed for 181 days in all patients. Analgesic effects were assessed before dosing and at multiple times after administration of antibody E3. […] Patients were cued 4 times daily and instructed to indicate the level of arthritis pain in the index knee at that moment. […] VAS for index knee pain during walking was completed daily, concurrent with the fourth current index knee pain VAS. Electronic diary for data collection was issued on day -8 and a 7-day screening assessment of electronic diary compliance was performed from day -8 to day -2 to determine success in using the electronic diaries for a given subject. Subjects were instructed to complete 4 diaries per day. The mean VAS recorded during the screening period is used as baseline for assessment of efficacy. Outcome was assessed as change from baseline (pain level during screening period), expressed as pain intensity difference (PID) or summed pain intensity difference (SPID) for different dose levels. Changes from baseline in the activity measurements were analyzed using an analysis of covariance (ANCOVA) model with treatment as the main factor and baseline pain as a covariate. For means and mean changes, comparisons of antibody E3 with placebo was made using Dunnett'[…] was used to assess the dose-response relationship.

B1: E3: humanized, affinity matured anti-NGF antagonist antibody; variable regions SEQ ID NO:1 and 2; human IgG2a (A330P331 to S330S331), kappa (antibody, V domains shown)
VH: QVQLQESGPGLVKPSETLSLTCTVSGFSLIGYDLNWIRQPPGKGLEWIGIIWGDGTTDYNSAVKSRVTISKDTSKNQFSLKLSSVTAADTAVYYCARGGYWYATSYYFDYWGQGTLVTVS
VL: DIQMTQSPSSLSASVGDRVTITCRASQSISNNLNWYQQKPGKAPKLLIYYTSRFHSGVPSRFSGSGSGTDFTFTISSLQPEDIATYYCQQEHTLPYTFGQGTKLEIKRT
modifications: human IgG2a constant (A330S/P331S) and kappa constant missing
- survival of E17 nodose neurons promoted by NT4/5 (NT4/5): had no effect; also recorded: did not inhibit
- Summed pain intensity differences (SPID) as compared to baseline ([1]; All E3 doses, Days 2-8): −713
- Summed pain intensity differences (SPID) as compared to baseline ([1]; All E3 doses, Days 2-14): −1269
- Summed pain intensity differences (SPID) as compared to baseline ([1]; All E3 doses, Days 2-21): −1752
- Summed pain intensity differences (SPID) as compared to baseline ([1]; All E3 doses, Days 2-28): −2254
- Summed pain intensity differences (SPID) as compared to baseline ([1]; E3 3 μg/kg single administration, Days 2-8): −572
- Summed pain intensity differences (SPID) as compared to baseline ([1]; E3 3 μg/kg single administration, Days 2-14): −956
- Summed pain intensity differences (SPID) as compared to baseline ([1]; E3 3 μg/kg single administration, Days 2-21): −1048
- Summed pain intensity differences (SPID) as compared to baseline ([1]; E3 3 μg/kg single administration, Days 2-28): −1067
- Summed pain intensity differences (SPID) as compared to baseline ([1]; E3 10 μg/kg single administration, Days 2-8): −671
- Summed pain intensity differences (SPID) as compared to baseline ([1]; E3 10 μg/kg single administration, Days 2-14): −1174
- Summed pain intensity differences (SPID) as compared to baseline ([1]; E3 10 μg/kg single administration, Days 2-21): −1623
- Summed pain intensity differences (SPID) as compared to baseline ([1]; E3 10 μg/kg single administration, Days 2-28): −2020
- Summed pain intensity differences (SPID) as compared to baseline ([1]; E3 30 μg/kg single administration, Days 2-8): −733
- Summed pain intensity differences (SPID) as compared to baseline ([1]; E3 30 μg/kg single administration, Days 2-14): −1371
- Summed pain intensity differences (SPID) as compared to baseline ([1]; E3 30 μg/kg single administration, Days 2-21): −2042
- Summed pain intensity differences (SPID) as compared to baseline ([1]; E3 30 μg/kg single administration, Days 2-28): −2566
- Summed pain intensity differences (SPID) as compared to baseline ([1]; E3 100 μg/kg single administration, Days 2-8): −766
- Summed pain intensity differences (SPID) as compared to baseline ([1]; E3 100 μg/kg single administration, Days 2-14): −1403
- Summed pain intensity differences (SPID) as compared to baseline ([1]; E3 100 μg/kg single administration, Days 2-21): −1996
- Summed pain intensity differences (SPID) as compared to baseline ([1]; E3 100 μg/kg single administration, Days 2-28): −2726
- Summed pain intensity differences (SPID) as compared to baseline ([1]; E3 300 μg/kg single administration, Days 2-8): −769
- Summed pain intensity differences (SPID) as compared to baseline ([1]; E3 300 μg/kg single administration, Days 2-14): −1340
- Summed pain intensity differences (SPID) as compared to baseline ([1]; E3 300 μg/kg single administration, Days 2-21): −1869
- Summed pain intensity differences (SPID) as compared to baseline ([1]; E3 300 μg/kg single administration, Days 2-28): −2521
- summed pain intensity differences (SPID) vs baseline, ANCOVA ([1]; single administration, p<0.05): pain reduction was statistically significant
- mean daily pain intensity (VAS) vs baseline ([1]; single i.v. dose 3, 10, 30, 100 or 300 μg/kg, every dose tested): decrease of mean daily pain intensity
- duration of pain intensity reduction / pain relief ([1]; single i.v. dose of 100 μg/kg): at least 80 days
